The experiment deals with LmrR_V15aY. Description: SEC; purified LmrR_V15aY after affinity chromatography; conditions not shown (Fig. S2, ESI). For orientation: Size exclusion chromatography separates by hydrodynamic size, large species first.

One may read the stoichiometry N as a count of units in the complex or per binding partner.

As for LmrR_V15aY (enzyme), the stoichiometry N was 2.

The values are drawn from article PMC12015630.
